# Reference: patent US12590147 (OBLIQUE THERAPEUTICS, dated 2026)
# Tests used:
# [1] = biological target: T1, human TRPV1 (transient receptor potential vanilloid type 1) (human, UniProt Q8NER1 1-839); assay: cell-based or functional assay
# [2] = biological target: T1, human TRPV1 (transient receptor …); assay: FACS on CHO TRPV1 cells, purified antibody
# Experimental: For monoclonal antibody preparations for FACS analysis, CHO TRPV1 cells, HEK 293 cells or CHO S cells were incubated with 50 μl antibody preparation (serum, hybridoma supernatant or purified monoclonal antibody or control) for 40 min at room temperature, followed by 30 min incubation at room temperature with 100 μl secondary antibody (anti-mouse IgG, conjugated to fluorescent probe). Binding was assessed by measurement of fluorescence signal from cells and reported as mean fluorescence intensity (MFI). CHO TRPV1 cells are adherent Chinese hamster ovary (CHO) cells with a tetracycline regulated expression system (T-REx) of hTRPV1 (human TRPV1) as described elsewhere. Doxycycline was used to induce expression of TRPV1. CHO S cells and HEK 293 cells were used as negative control cells. CHO S cells are a high-density suspension-adapted cell type used as a tool for high level expression of recombinant protein, with little or no basal expression of TRPV1. […]
# In the study described in the present example, 16 mouse monoclonal antibodies against human TRPV1, 32C8-1, 33C9-1, 34C11-1, 40B10-1, 41B5-1, 43D6-1, 44E8-1, 46B7-1, 46D9-1, 12C9-1, 12G6-1, 15D8-1, 16F1-1, 17E11-1, 17E9-1, 18E10-1, were produced using the hybridoma technology. Specificity of binding to hTRPV1 was determined using FACS, employing a CHO cell line with inducible hTRPV1 expression. […]
# [3] = biological target: T1, human TRPV1 (transient receptor …); assay: FACS on CHO cells with induced hTRPV1 expression
# Experimental: For monoclonal antibody preparations, CHO-TRPV1 cells were incubated with 50 μl antibody preparation (serum, hybridoma supernatant or purified monoclonal antibody) for 30 min at 4° C., followed by 30 min incubation at 4° C. with 50 µl secondary antibody (anti-mouse IgG, conjugated to fluorescent probe). The negative control was secondary antibody only (anti-mouse IgG at […] in the 50 µL sample). Binding was assessed by measurement of fluorescence signal from cells and reported as mean fluorescence intensity (MFI). CHO-TRPV1 cells are adherent Chinese hamster ovary (CHO) cells with a tetracycline regulated expression system (T-REx) of hTRPV1 (human TRPV1) as described elsewhere. Doxycycline was used to induce expression of TRPV1 (denoted +TRPV1). Non-induced cells are denoted –TRPV1.
# Three examples of mouse monoclonal antibodies against human TRPV1, OT-Ab1, OT-Ab2 and OT-Ab3, were produced using the hybridoma technology. Specificity of binding to hTRPV1 was determined using FACS, employing a CHO cell line with inducible hTRPV1 expression. OT-Ab1, OT-Ab2 and OT-Ab3 bound to hTRPV1-expressing cells but not to non-hTRPV1-expressing cells indicating strongly specific binding to hTRPV1 (FIG. 5).
# T1 sequence (Q8NER1 whole entry): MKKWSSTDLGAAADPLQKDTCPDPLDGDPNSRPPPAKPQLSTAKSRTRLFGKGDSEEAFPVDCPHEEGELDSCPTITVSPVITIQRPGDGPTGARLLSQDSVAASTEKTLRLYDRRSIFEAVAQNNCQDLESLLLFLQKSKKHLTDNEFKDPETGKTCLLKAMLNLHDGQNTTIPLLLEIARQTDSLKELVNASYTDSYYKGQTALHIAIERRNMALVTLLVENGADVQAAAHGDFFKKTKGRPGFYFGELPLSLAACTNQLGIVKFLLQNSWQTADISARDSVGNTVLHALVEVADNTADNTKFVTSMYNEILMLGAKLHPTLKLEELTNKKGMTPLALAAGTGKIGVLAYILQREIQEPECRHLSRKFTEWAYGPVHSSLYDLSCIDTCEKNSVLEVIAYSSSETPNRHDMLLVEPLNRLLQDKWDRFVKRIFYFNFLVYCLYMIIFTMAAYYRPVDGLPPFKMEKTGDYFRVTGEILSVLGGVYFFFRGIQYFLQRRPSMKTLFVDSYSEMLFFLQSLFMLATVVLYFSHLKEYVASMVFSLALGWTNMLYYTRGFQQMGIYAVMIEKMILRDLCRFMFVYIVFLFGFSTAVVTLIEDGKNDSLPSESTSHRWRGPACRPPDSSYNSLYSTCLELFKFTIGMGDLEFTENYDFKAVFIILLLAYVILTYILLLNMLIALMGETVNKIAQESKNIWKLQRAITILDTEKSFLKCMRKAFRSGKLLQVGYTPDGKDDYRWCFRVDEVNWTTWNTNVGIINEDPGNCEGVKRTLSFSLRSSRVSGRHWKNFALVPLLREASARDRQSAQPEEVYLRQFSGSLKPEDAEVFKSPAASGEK
IC50 of inhibition of TRPV1-mediated capsaicin-induced Ca2+ uptake (FLIPR) [1],Binder,also measured
~200 nM,"46B7-1 (antibody, V domains shown) VH: DVQLQESGPGLVKPSQSLSLTCTVTDYSLTSDYAWNWIRQFPGNKLEWMGYITYSGYTNYNPSLKSRVSITRDTSKTQFFLQLNSVTTEDTATYYCARSTAYFDYWGQGTTLTVSS VL: DVLMTQTPLSLPVSLGDQASISCRSSQSVIHSDGNTYLEWYLQKPGQSPKLLIYKVSNRFSGVPDRFSGSGSGTDFTLKISRVEAEDLGVYYCFQGSHVPPTFGGGTKLEIK",
~400 nM,"17E9-1 (antibody, IgG2b, V domains shown) VH: EVQLLQSVAELVRPGASVKLSCTASGFNIKNTFIHWLKQRPEQGLEWIGKIDPANGNIRCAPKFQGKATITADTSSNTAYLQLSSLTSGDTAIYYCGRGTMLVGHFYWYFDVWGTGTTVTVSS VL: DIVMSQSPSSLAVSVGEKITMSCKSSQSLLYSSNQKNYLAWYQQKPGQSPKLLIYWASTRESGVPDRFSGSGSGTDFTLTISSVKTEDLAIFYCQQYYYYPPTFGAGTKLELR",

# Further lines, the binder ahead of its results:
Binder,IC50 of inhibition of TRPV1-mediated capsaicin-induced Ca2+ uptake (FLIPR) [1],also measured
"15D8-1 (antibody, V domains shown) VH: DVQLVESGGGLVQPGGSRKLSCAASGFTFSSFGMHWVRQAPEKGLEWVAYISSGSSTIYYADTVKGRFTISRDNPKNTLFLQMTSLRSEDTAMYYCARRGNAMDYWGQGTSVTVSS VL: NIMMTQSPSSLAVSAGEKVTMSCKSSQSVLYSSNQKNYLAWYQQKPGQSPKLLIYWASTRESGVPDRFTGSGSGTDFTLTISSVQAEDLAVYYCHQYFSSWTFGGGTKLEIK",~70 nM,
"12C9-1 (antibody, IgG2b, V domains shown, mouse monoclonal, IgG2b/kappa) VH: EVQLQQSGPELVKPGTSVKISCKASGYTFTGYYMNWVKQSHGKSLEWIGDINPNNGGTDYNRKFKGKATLTVDKSSSTAYMEVRSLTSEDSAVYYCAKDFAVWGTGTTVTVSS VL: not shown",,binding result [2]: binds
"41B5-1 (antibody, V domains shown) VH: DVQLQESGPGLVKPSQSLSLTCTVTDYSLTSDYAWNWIRQFPGNKLEWMGYITYSGYTNFNPSLRSRISITRDTSKTQFFLQLNSVTAEDTATYYCVRSTTYFDYWGQGTTLTVSS VL: DVLMTQTPLSLPVSLGDQASISCRSSQSIVHSDGNTYLEWYLQKPGQSPKLLIYKVSNRFSGVPDRFSGSGSGTDFTLKINRVEAEDLGIYYCFQGSHVPPTFGGGTKLEIK",~170 nM,
"12G6-1 (antibody, IgG1, V domains shown, mouse monoclonal, IgG1/kappa) VH: EVQLVESGGDLVNPGGSLKLSCAASGFTISNYGMSWVRQTPDKRLEWVAIIIRDGGYTYYPDSVKGRFTISRDSAKNTLYLQMSSLKSEDTAMYYCARHEYYFDFWGQGTTLTVSS VL: DVLMTQTPLSLPVSLGDQASISCRSSQTILHSDGNTYLEWYLQKPGQSPKLLIYKVSNRFSGVPDRFSGSGSGTDFTLKISRVEAEDLGVYYCSQGSHFPPTFGGGTKVEIK",,binding result [2]: binds
"16F1-1 (antibody, IgG2a, V domains shown) VH: EVQLVESGGGLVQPKGSLKLSCAASGFTFNTYAMHWVRQAPGKGLEWVARIRSKSSNYATYYADSVKDRFTISRDDSQSMVYLQMNNLKTEDTAMYYCVRKGDGYDGWFAYWGQGTLVTVSA VL: DIQMTQSPASLSASVGETVTITCRPSGNIHNYLVWYQQKQGKSPQVLVYNSKTLADGVPSRFSGSGSGTQYSLKINSLQPEDFGTYYCQHFWSTPLTFGAGTKLELK",~215 nM,
"OT-Ab1 (antibody, IgG2b, V domains shown, mouse monoclonal, IgG2b/kappa) VH: EVQLQQSGAELVKPGASVKLSCTASGFNIKDTYIHWVKQRPEQGLEWIGRIDPANGNTRYDPKFQGKATITADTSSNTAYLQLSSLTSEDTAVYYCAKVSGDRRFYWYFDVWGAGTTVTVSS VL: not shown",,binding result [3]: binds
"17E11-1 (antibody, IgG1, V domains shown) VH: EVQLLQSVAELVRPGASVKLSCTASGFNIKNTFIHWLKQRPEQGLEWIGKIDPANGNIRCAPKFQGKATITADTSSNTAYLQLSSLTSGDTAIYYCGRGTMLVGHFYWYFDVWGTGTTVTVSS VL: DIVMSQSPSSLAVSVGEKITMSCKSSQSLLYSSNQKNYLAWYQQKPGQSPKLLIYWASTRESGVPDRFSGSGSGTDFTLTISSVKTEDLAIFYCQQYYYYPPTFGAGTKLELR",~230 nM,
"OT-Ab2 (antibody, IgG1, V domains shown, mouse monoclonal, IgG1/kappa) VH: EVKLLESGGGLVQPGGSLKLSCAASGFDFRRYWMSWVRQAPGKGLEWIGEINPDSSTINYTPSLKDEFIISRDNAKNTLYLQMSKVRSEDTVLYYCSRGGDYWGQGTSVTVSS VL: not shown",,binding result [3]: binds
"OT-Ab3 (antibody, IgG1, V domains shown, mouse monoclonal, IgG1/kappa) VH: EVNLLESGGGLVQPGGSLKLSCAASGFDFRRYWMSWVRQAPGKGLEWIGEINPDSSTINYTPSLKDEFIISRDNAKNTLYLQMSKVRSEDTVLYYCSRGGDYWGQGTSVTVSS VL: not shown",,binding result [3]: binds
